Measurements as given in US20120184457A1, “Modulation of miRNA Activity” (Cambridge Enterprise Limited, priority 2009, published 2012).

Legend:
[1] = target: T1, LIN-28 (GST-LIN-28) (Caenorhabditis elegans) (UniProt P92186); experiment: EMSA; settings: estimated; 50 mM Tris pH 7.6, 100 mM NaCl, 5 mM MgOAc2, tRNA competitor, room temperature
T1 sequence: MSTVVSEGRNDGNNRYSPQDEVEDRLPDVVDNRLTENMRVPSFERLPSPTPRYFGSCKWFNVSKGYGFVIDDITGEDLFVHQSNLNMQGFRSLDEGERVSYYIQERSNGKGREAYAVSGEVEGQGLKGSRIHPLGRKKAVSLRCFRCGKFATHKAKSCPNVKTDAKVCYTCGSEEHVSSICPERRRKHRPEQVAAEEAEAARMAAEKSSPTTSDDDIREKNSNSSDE

[2] = tested on: recombinant GST-LIN-28 (C. elegans LIN-28 fused to glutathione-S-transferase) [GST: P08515]
ZCCHC11 = target: T2, ZCCHC11 (Homo sapiens, UniProt Q5TAX3); experiment: Screening assay for ZCCHC poly(U) polymerase inhibitors: in vitro uridylation of 5'-end-labeled pre-let-7; assay type: biochemical
T2 construct: expressed in transfected cells; host or cells: HEK293T
Experimental: HEK293T cells were transfected with pHA-FLAG-ZCCHC11. After 48 hrs cells were lysed. 50 μl of the supernatant was incubated with 5 μl of pre-washed anti-FLAG antibody conjugated to agarose beads (Sigma) and incubated for 2 hrs at 4° C. Agarose-beads were washed twice with lysis buffer and twice with buffer D. For in vitro uridylation, agarose beads were incubated in a 30 μl reaction containing 3.2 mM of MgCl2, 1 mM of DTT and 0.25 mM of rUTP, 5 mM of test compound and 5′-end-labeled pre-let-7 of 1×10^4-1×10^5 cpm, for 20 min at 37° C. RNA was purified by Trizol extraction and isopropanol precipitated. Reactions were analysed in a 12% urea polyacrylamide gel.

recombinant GST-LIN-28 (C. elegans LIN-28 fused to glutathione-S-transferase) [GST: P08515], sequence (P08515 whole entry, looked up, the tested form may be a part): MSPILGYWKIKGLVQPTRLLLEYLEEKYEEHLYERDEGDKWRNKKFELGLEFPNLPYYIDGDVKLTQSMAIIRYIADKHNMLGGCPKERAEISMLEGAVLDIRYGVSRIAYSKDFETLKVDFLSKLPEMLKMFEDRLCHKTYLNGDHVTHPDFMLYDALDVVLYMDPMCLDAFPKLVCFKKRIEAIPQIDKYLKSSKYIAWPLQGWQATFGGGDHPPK
T2 sequence (Q5TAX3 whole entry): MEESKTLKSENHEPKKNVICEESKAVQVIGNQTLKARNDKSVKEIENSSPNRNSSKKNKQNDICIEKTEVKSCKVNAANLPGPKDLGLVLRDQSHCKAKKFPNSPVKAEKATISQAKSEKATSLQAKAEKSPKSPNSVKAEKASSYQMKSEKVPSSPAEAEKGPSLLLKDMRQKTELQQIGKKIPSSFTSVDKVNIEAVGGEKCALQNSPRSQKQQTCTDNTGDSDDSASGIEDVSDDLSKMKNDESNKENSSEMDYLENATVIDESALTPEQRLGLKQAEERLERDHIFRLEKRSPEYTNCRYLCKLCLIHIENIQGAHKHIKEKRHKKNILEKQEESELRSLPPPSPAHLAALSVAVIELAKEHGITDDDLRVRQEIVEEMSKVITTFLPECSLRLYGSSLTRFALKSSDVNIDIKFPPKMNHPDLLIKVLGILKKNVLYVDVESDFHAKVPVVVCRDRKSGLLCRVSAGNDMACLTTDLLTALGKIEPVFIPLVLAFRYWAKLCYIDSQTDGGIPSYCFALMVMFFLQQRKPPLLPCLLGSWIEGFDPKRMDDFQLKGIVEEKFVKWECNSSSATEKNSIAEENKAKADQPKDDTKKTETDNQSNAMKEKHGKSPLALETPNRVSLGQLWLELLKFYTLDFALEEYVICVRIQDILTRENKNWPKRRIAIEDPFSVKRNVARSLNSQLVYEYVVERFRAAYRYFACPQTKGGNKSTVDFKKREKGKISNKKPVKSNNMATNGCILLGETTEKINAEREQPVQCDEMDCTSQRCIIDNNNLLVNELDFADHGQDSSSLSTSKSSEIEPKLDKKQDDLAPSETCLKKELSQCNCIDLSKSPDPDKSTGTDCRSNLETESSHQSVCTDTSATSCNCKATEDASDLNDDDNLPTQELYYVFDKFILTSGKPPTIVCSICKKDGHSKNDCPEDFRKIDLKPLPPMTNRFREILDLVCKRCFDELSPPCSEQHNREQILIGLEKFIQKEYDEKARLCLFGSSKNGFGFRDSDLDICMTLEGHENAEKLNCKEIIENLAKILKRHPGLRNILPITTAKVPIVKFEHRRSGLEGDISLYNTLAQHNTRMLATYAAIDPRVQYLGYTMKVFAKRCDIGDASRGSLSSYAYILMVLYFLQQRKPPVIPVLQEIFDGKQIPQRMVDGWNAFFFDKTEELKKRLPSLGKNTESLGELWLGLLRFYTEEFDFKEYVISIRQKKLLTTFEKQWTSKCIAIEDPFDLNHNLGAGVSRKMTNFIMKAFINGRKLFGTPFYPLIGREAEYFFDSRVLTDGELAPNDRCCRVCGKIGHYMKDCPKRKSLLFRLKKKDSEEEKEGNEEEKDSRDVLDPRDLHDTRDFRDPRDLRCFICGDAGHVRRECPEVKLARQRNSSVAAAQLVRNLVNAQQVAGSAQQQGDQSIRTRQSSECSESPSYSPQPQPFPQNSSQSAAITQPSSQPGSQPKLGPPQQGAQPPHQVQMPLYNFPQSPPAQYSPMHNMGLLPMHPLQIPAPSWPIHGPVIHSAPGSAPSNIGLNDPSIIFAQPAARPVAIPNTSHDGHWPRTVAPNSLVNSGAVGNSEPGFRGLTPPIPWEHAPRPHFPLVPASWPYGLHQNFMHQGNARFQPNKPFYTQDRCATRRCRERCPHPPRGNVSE

## pre-let-7 (in vitro transcribed)
[1]
  Kd: 2000 nM

## recombinant MBP-PUP2 (C. elegans PUP2 fused to maltose binding protein)
[2]
  polyuridylation of pre-let-7 in vitro (uridylation assay, incorporation of alpha-32P-UTP): PUP2 was inactive on its own and required the addition of LIN-28 to polyuridylate pre-let-7
  uridylation assay: PUP2 is a LIN-28 dependent pre-let-7 polyuridylase in vitro

## uridine 5′-diphosphoglucuronic acid (UDP-GlcA) [compound 1]
ZCCHC11; FLAG immunoprecipitates, 5 mM of test compound, 20 min at 37° C., FIG. 15b
  uridylation activity of FLAG immunoprecipitates of ZCCHC11: reduces the uridylation activity
ZCCHC11; whole cell extracts of HEK293T cells transfected with pHA-FLAG-ZCCHC11, FIG. 15a
  uridylation activity of whole cell extracts (endogenous and HA-FLAG-ZCCHC11 uridylyl activities): reduces the uridylation activity
